Data reported in article doi:10.1101/2021.02.26.433144v1 (biorxiv, 2021).

Assays:
Assay in all cases: purified protein
purified protein [1] = substrate: Oc1ccccc1O; settings: 0.1 M sodium phosphate pH 7, 40 °C, 0-60 mM substrate
purified protein [2] = substrate: N[C@@H](Cc1ccc(O)c(O)c1)C(=O)O; settings: 0.1 M sodium phosphate pH 7, 40 °C, 0-7 mM substrate
purified protein [3] = substrate: COc1ccccc1O; settings: 0.1 M sodium phosphate pH 7, 40 °C, 0-15 mM substrate
purified protein [4] = substrate: Oc1cc(O)c2c(c1)O[C@H](c1ccc(O)c(O)c1)[C@@H](O)C2; settings: 0.1 M sodium phosphate pH 7, 40 °C, 0-10 mM substrate
purified protein [5] = substrate: Oc1ccc(O)cc1; settings: 0.1 M sodium phosphate pH 7, 40 °C, 0-70 mM substrate

Protein | Km (purified protein [4]) | kcat (purified protein [4]) | other results
TtPPO (Thermothelomyces thermophilus ATCC 42464) (protein) RCSSDAPPPAPVGDDLTEPKELTDLFEKAKKAVIDRLHEDEKALRARGEAPRCTADKLIFRREYGSLSKDERLAYVNAVKCLQSKPPRTPASVAPGARSRFDDFVVVHIQQTLDIHYSGIFQAWHRWFVYQYEKALRDECGYTGYQPYWDWPKYASAPQDSPLFNGDPYSLGGNGEYVPHDGPVIVPPEGVSGGNISLPAGVGGGFVRTGPFANMTVNLGPVGGLADTAPGPQGGLGYNPRGLKRDLGGAMNTRYANYTTVLRLLTQPDVDAFRTVSEGVPYTVEIGPHGGIHYTIGGDPGGDLFTSPGDPAFWVHHAQMDRVWATWQALGLLPPADGGDPDPARRYTDLGKGDYAHRTWQNSPPSPFAELSDVIDMGYAAPSTTIGAVMSTTEGELCYFYL | 33.7(14.0) mM | 1619.1(549.2) min^-1 | Km (purified protein [1]): 32.5(4.3) mM; kcat (purified protein [1]): 8.6(0.6) min^-1; Km (purified protein [2]): 2.4(0.7) mM; kcat (purified protein [2]): 4.3(0.5) min^-1; Km (purified protein [3]): 4.6(0.6) mM; kcat (purified protein [3]): 39.3(2.2) min^-1; Km (purified protein [5]): 59.1(6.0) mM; kcat (purified protein [5]): 67.5(3.9) min^-1
TtPPO (Thermothelomyces thermophilus ATCC 42464; G312N/L326A) (protein) RCSSDAPPPAPVGDDLTEPKELTDLFEKAKKAVIDRLHEDEKALRARGEAPRCTADKLIFRREYGSLSKDERLAYVNAVKCLQSKPPRTPASVAPGARSRFDDFVVVHIQQTLDIHYSGIFQAWHRWFVYQYEKALRDECGYTGYQPYWDWPKYASAPQDSPLFNGDPYSLGGNGEYVPHDGPVIVPPEGVSGGNISLPAGVGGGFVRTGPFANMTVNLGPVGGLADTAPGPQGGLGYNPRGLKRDLGGAMNTRYANYTTVLRLLTQPDVDAFRTVSEGVPYTVEIGPHNGIHYTIGGDPGGDAFTSPGDPAFWVHHAQMDRVWATWQALGLLPPADGGDPDPARRYTDLGKGDYAHRTWQNSPPSPFAELSDVIDMGYAAPSTTIGAVMSTTEGELCYFYL | 4.3(0.3) mM | 337.9(11.2) min^-1 | 
TtPPO (Thermothelomyces thermophilus ATCC 42464; Y316V) (protein) RCSSDAPPPAPVGDDLTEPKELTDLFEKAKKAVIDRLHEDEKALRARGEAPRCTADKLIFRREYGSLSKDERLAYVNAVKCLQSKPPRTPASVAPGARSRFDDFVVVHIQQTLDIHYSGIFQAWHRWFVYQYEKALRDECGYTGYQPYWDWPKYASAPQDSPLFNGDPYSLGGNGEYVPHDGPVIVPPEGVSGGNISLPAGVGGGFVRTGPFANMTVNLGPVGGLADTAPGPQGGLGYNPRGLKRDLGGAMNTRYANYTTVLRLLTQPDVDAFRTVSEGVPYTVEIGPHGGIHVTIGGDPGGDLFTSPGDPAFWVHHAQMDRVWATWQALGLLPPADGGDPDPARRYTDLGKGDYAHRTWQNSPPSPFAELSDVIDMGYAAPSTTIGAVMSTTEGELCYFYL | 9.7(2.4) mM | 547.3(84.6) min^-1 | 
TtPPO (Thermothelomyces thermophilus ATCC 42464; G312N/Y316V) (protein) RCSSDAPPPAPVGDDLTEPKELTDLFEKAKKAVIDRLHEDEKALRARGEAPRCTADKLIFRREYGSLSKDERLAYVNAVKCLQSKPPRTPASVAPGARSRFDDFVVVHIQQTLDIHYSGIFQAWHRWFVYQYEKALRDECGYTGYQPYWDWPKYASAPQDSPLFNGDPYSLGGNGEYVPHDGPVIVPPEGVSGGNISLPAGVGGGFVRTGPFANMTVNLGPVGGLADTAPGPQGGLGYNPRGLKRDLGGAMNTRYANYTTVLRLLTQPDVDAFRTVSEGVPYTVEIGPHNGIHVTIGGDPGGDLFTSPGDPAFWVHHAQMDRVWATWQALGLLPPADGGDPDPARRYTDLGKGDYAHRTWQNSPPSPFAELSDVIDMGYAAPSTTIGAVMSTTEGELCYFYL | 10.3(0.8) mM | 33.3(1.7) min^-1 | 
TtPPO (Thermothelomyces thermophilus ATCC 42464; G312N) (protein) RCSSDAPPPAPVGDDLTEPKELTDLFEKAKKAVIDRLHEDEKALRARGEAPRCTADKLIFRREYGSLSKDERLAYVNAVKCLQSKPPRTPASVAPGARSRFDDFVVVHIQQTLDIHYSGIFQAWHRWFVYQYEKALRDECGYTGYQPYWDWPKYASAPQDSPLFNGDPYSLGGNGEYVPHDGPVIVPPEGVSGGNISLPAGVGGGFVRTGPFANMTVNLGPVGGLADTAPGPQGGLGYNPRGLKRDLGGAMNTRYANYTTVLRLLTQPDVDAFRTVSEGVPYTVEIGPHNGIHYTIGGDPGGDLFTSPGDPAFWVHHAQMDRVWATWQALGLLPPADGGDPDPARRYTDLGKGDYAHRTWQNSPPSPFAELSDVIDMGYAAPSTTIGAVMSTTEGELCYFYL | 4.3(1.0) mM | 2.9(0.3) min^-1 | 
TtPPO (Thermothelomyces thermophilus ATCC 42464; L326A) (protein) RCSSDAPPPAPVGDDLTEPKELTDLFEKAKKAVIDRLHEDEKALRARGEAPRCTADKLIFRREYGSLSKDERLAYVNAVKCLQSKPPRTPASVAPGARSRFDDFVVVHIQQTLDIHYSGIFQAWHRWFVYQYEKALRDECGYTGYQPYWDWPKYASAPQDSPLFNGDPYSLGGNGEYVPHDGPVIVPPEGVSGGNISLPAGVGGGFVRTGPFANMTVNLGPVGGLADTAPGPQGGLGYNPRGLKRDLGGAMNTRYANYTTVLRLLTQPDVDAFRTVSEGVPYTVEIGPHGGIHYTIGGDPGGDAFTSPGDPAFWVHHAQMDRVWATWQALGLLPPADGGDPDPARRYTDLGKGDYAHRTWQNSPPSPFAELSDVIDMGYAAPSTTIGAVMSTTEGELCYFYL | 2.8(0.5) mM | 415.0(35.1) min^-1 | 
